Results from the supplement of paper PMC9233669.
Variants at the floor of the assay were thinned out.

Tests used:
biotinyl-Trp-oxazolone = assay: self-aminoacylation, catalytic enhancement (BWO) (fold over background); higher = more active; k-Seq, kA / k0A0; sequences stand for … in GGGAAUGGAUCCACAUCUACGAAUUC…UUCACUGCAGACUUGACGAAGCUG
Method in brief: (§1)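 Mutagenized RNA pools (0.43 μM; 21-nt variable region) were treated with 2–1250 μM of each biotinyl-aminoacyl-oxazolone. Conditions were 50 μL HEPES/NaCl/KCl/MgCl2/CaCl2 buffer, 5% acetonitrile, pH 6.9–7.0, room temperature, 90 minutes. Catalytic enhancement, the median kA relative to the uncatalyzed rate, was derived from streptavidin capture, qPCR and Illumina sequencing.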

biotinyl-Ile-oxazolone = assay: self-aminoacylation, catalytic enhancement (BIO) (fold over background); higher = more active; k-Seq, kA / k0A0; sequences stand for … in GGGAAUGGAUCCACAUCUACGAAUUC…UUCACUGCAGACUUGACGAAGCUG
Method in brief: as §1

biotinyl-Val-oxazolone = assay: self-aminoacylation, catalytic enhancement (BVO) (fold over background); higher = more active; k-Seq, kA / k0A0; sequences stand for … in GGGAAUGGAUCCACAUCUACGAAUUC…UUCACUGCAGACUUGACGAAGCUG
Method in brief: as §1

biotinyl-Leu-oxazolone = assay: self-aminoacylation, catalytic enhancement (BLO) (fold over background); higher = more active; k-Seq, kA / k0A0; sequences stand for … in GGGAAUGGAUCCACAUCUACGAAUUC…UUCACUGCAGACUUGACGAAGCUG
Method in brief: as §1

biotinyl-Met-oxazolone = assay: self-aminoacylation, catalytic enhancement (BMO) (fold over background); higher = more active; k-Seq, kA / k0A0; sequences stand for … in GGGAAUGGAUCCACAUCUACGAAUUC…UUCACUGCAGACUUGACGAAGCUG
Method in brief: as §1

biotinyl-Phe-oxazolone = assay: self-aminoacylation, catalytic enhancement (BFO) (fold over background); higher = more active; k-Seq, kA / k0A0; sequences stand for … in GGGAAUGGAUCCACAUCUACGAAUUC…UUCACUGCAGACUUGACGAAGCUG
Method in brief: as §1

Sequence | self-aminoacylation (biotinyl-Trp-oxazolone) | self-aminoacylation (biotinyl-Ile-oxazolone) | self-aminoacylation (biotinyl-Val-oxazolone) | self-aminoacylation (biotinyl-Leu-oxazolone) | self-aminoacylation (biotinyl-Met-oxazolone) | self-aminoacylation (biotinyl-Phe-oxazolone)
AACUUUGCGAAUAGUCGCAAG [Fam3.1 aminoacylation ribozyme variant] | 2.9 | 2.42 | 2.4 | 2.6 | 2.67 | 4.36
CUACUUCAAACAAUCCGUUUG [Fam1A.1 aminoacylation ribozyme variant] | 0.87 | 0.694 | 0.77 | 0.674 | 0.594 | 0.704
CUACGUUAAACAAUCGGUCUG [Fam1A.1 aminoacylation ribozyme variant] | 1.05 | 1.19 | 1.19 | 1.17 | 1.16 | 0.927
AUUACCAUGGUCAUCGAGUGU [Fam2.1 aminoacylation ribozyme variant] | 6.03 | 2.55 | 2.78 | 4.6 | 4.53 | 4.69
ACUCACCUAGGUCAUCGGGUG [Fam2.2 aminoacylation ribozyme variant] | 13.9 | 9.45 | 9.32 | 19.8 | 15.9 | 105
AUUCACCUGGGUCAUCGAGUG [Fam2.2 aminoacylation ribozyme variant] | 3.74 | 2.4 | 2.59 | 4.18 | 3.54 | 3.55
AAUACCCUGGUCAUCGUGUGA [Fam2.1 aminoacylation ribozyme variant] | 2.98 | 1.51 | 1.35 | 2.39 | 2.55 | 11.4
CCACACAUCAAGCAAUCGCUC [Fam1B.1 aminoacylation ribozyme variant] | 1.64 | 1.43 | 1.68 | 1.21 | 1.04 | 0.869
CUGCUUCAAACAACCGGUCUG [Fam1A.1 aminoacylation ribozyme variant] | 0.921 | 0.683 | 0.932 | 0.793 | 0.664 | 0.915
AAUCACCUAGGUUAUCGGGUG [Fam2.2 aminoacylation ribozyme variant] | 7.07 | 3.83 | 4.23 | 4.57 | 4.32 | 38.4
AUUCAAGUAGGUCAUCGGGUG [Fam2.2 aminoacylation ribozyme variant] | 5.33 | 3.73 | 3.43 | 7.04 | 5.19 | 36.6
AUGUUUGCUAAUAGACGCAAG [Fam3.1 aminoacylation ribozyme variant] | 0.508 | 0.691 | 0.736 | 0.564 | 0.611 | 0.828
